As usually defined, the Kd is the equilibrium constant for the complex coming apart. The low end stands for a tighter complex, the high end for a looser complex.

What all share (conditions): both partners purified
Test [1] addresses T1, MCM2 HBD (61–130)–H3.3–H4 complex ( | human, UniProt P49736 61-130; P84243 1-136; P62805 2-103).
T1 construct: histone H3.3, human; histone H4, human; also called pre-assembled MCM2 HBD-H3.3-H4 complexes; MCM2 HBD–H3.3–H4 complex; source: purified as described previously (Huang et al., 2015); copies: + +
Kind of test: pull-down; GST-tagged protein (1.5 nmol) on Glutathione Sepharose 4B, 1.5 nmol histone complex added; 20 mM Tris pH 7.5, 500 mM NaCl, 4°C, 2 hours; washes with 0.5% Triton X-100; SDS-PAGE.

Test [2] has as its target T2, human histones H3.3–H4 tetramer (human, UniProt P84243 1-136; P62805 1-103).
T2 construct: histone H3.3, human; histone H4, human; methods call it a tetramer; construct as in Huang et al., 2015; also called pre-assembled H3.3-H4; H3.3 WT-H4; source: bacteria, co-expressed and purified (as in Huang et al., 2015; Superdex 200 in 2 M NaCl); copies: 2 + 2
Briefly: ITC; MicroCal PEAQ-ITC, 20°C, 20 mM Tris-HCl pH 7.5, 500 mM NaCl; 300 μM DNAJC9 HBD in the syringe, 30 μM (dimers) H3-H4 in the cell; one set of sites model; n = 3. (In general: Isothermal titration calorimetry measures the heat released or taken up as one component is titrated into another.)

Test [3] has as its target T3, histone H4 (recombinant) (human, UniProt P62805 2-103). Briefly: crystal structure; DNAJC9 HBD C243S mixed 1:1 with the MCM2 HBD (61–130)–H3.3 (57–135)–H4 complex, gel filtration in 1 M NaCl; PDB 7CJ0, 2.50 Å.
The target of test [4] is T3, histone H4 (recombinant). Kind of test: crystal structure; DNAJC9 αB C243S mixed 1:1 with the MCM2 HBD (61–130)–H3.3 (57–135)–H4 complex, gel filtration in 500 mM NaCl; PDB 7CIZ, 1.80 Å. A general note: Size exclusion chromatography separates by hydrodynamic size, large species first.

B1: GST-DNAJC9 HBD (histone binding domain, 171–249) (domain or fragment)
chain: EVPSYNAFVKESKQKMNARKRRAQEEAKEAEMSRKELGLDEGVDSLKAAIQSRQKDRQKEMDNFLAQMEAKYCKSSKGG
notes: PDB 7CJ0 holds the same limits with C243S; also called GST-tagged DNAJC9 HBD; DNAJC9 HBD WT; source: E. coli BL21 (DE3)-RIL, purified (Glutathione Sepharose 4B, Superdex 200)
In the case of B1, in test [1], the binding result is “binds”.

B2: DNAJC9 HBD (171–249), GST tag removed (domain or fragment)
chain: EVPSYNAFVKESKQKMNARKRRAQEEAKEAEMSRKELGLDEGVDSLKAAIQSRQKDRQKEMDNFLAQMEAKYCKSSKGG
notes: used in ITC; also called DNAJC9 HBD WT; source: E. coli BL21 (DE3)-RIL, purified (Glutathione Sepharose 4B, 3C protease, Superdex 200)
On to B2, for which binding in test [2] was characterised by a dissociation constant (Kd) of 55 nM.

B3: DNAJC9 HBD C243S (171–249), GST tag removed (domain or fragment)
chain: EVPSYNAFVKESKQKMNARKRRAQEEAKEAEMSRKELGLDEGVDSLKAAIQSRQKDRQKEMDNFLAQMEAKYSKSSKGG
notes: crystallized construct; source: E. coli BL21 (DE3)-RIL, purified (Glutathione Sepharose 4B, 3C protease, Superdex 200)
As for B3, the binding result in test [3] is reported as “binds”.

B4: GST-DNAJC9 HBD Q224A R227A (domain or fragment)
chain: EVPSYNAFVKESKQKMNARKRRAQEEAKEAEMSRKELGLDEGVDSLKAAIQSRAKDAQKEMDNFLAQMEAKYCKSSKGG
notes: source: E. coli BL21 (DE3)-RIL, purified (Glutathione Sepharose 4B, Superdex 200)
Take B4: in test [1], the binding result was “binds”.

B5: GST-DNAJC9 HBD M238A Y242A (domain or fragment)
chain: EVPSYNAFVKESKQKMNARKRRAQEEAKEAEMSRKELGLDEGVDSLKAAIQSRQKDRQKEMDNFLAQAEAKACKSSKGG
notes: as for B4
As for B5, the binding result in test [1] was “binds”.

B6: GST-DNAJC9 HBD F234A L235A (domain or fragment)
chain: EVPSYNAFVKESKQKMNARKRRAQEEAKEAEMSRKELGLDEGVDSLKAAIQSRQKDRQKEMDNAAAQMEAKYCKSSKGG
notes: as for B4
Regarding B6, the binding result in test [1] is listed as “binds”.

B7: GST-DNAJC9 HBD 4A1 (E195A E196A E199A A200E) (domain or fragment)
chain: EVPSYNAFVKESKQKMNARKRRAQAAAKAEEMSRKELGLDEGVDSLKAAIQSRQKDRQKEMDNFLAQMEAKYCKSSKGG
notes: as for B4
As to B7, in test [1], the binding result is on record as “binds”.

B8: DNAJC9 αB C243S (204–249), GST tag removed (domain or fragment)
chain: RKELGLDEGVDSLKAAIQSRQKDRQKEMDNFLAQMEAKYSKSSKGG
notes: crystallized construct; also called isolated DNAJC9 αB helix (C243S); source: E. coli BL21 (DE3)-RIL, purified (Glutathione Sepharose 4B, 3C protease, Superdex 200)
In the case of B8, the binding result in test [4] was “binds”.
